Ends that are not written are not given here.

For assay [1], the target named is T1, IRE1α lumenal domain (IRE1αLD) (human, UniProt O75460 24-443).
T1 sequence: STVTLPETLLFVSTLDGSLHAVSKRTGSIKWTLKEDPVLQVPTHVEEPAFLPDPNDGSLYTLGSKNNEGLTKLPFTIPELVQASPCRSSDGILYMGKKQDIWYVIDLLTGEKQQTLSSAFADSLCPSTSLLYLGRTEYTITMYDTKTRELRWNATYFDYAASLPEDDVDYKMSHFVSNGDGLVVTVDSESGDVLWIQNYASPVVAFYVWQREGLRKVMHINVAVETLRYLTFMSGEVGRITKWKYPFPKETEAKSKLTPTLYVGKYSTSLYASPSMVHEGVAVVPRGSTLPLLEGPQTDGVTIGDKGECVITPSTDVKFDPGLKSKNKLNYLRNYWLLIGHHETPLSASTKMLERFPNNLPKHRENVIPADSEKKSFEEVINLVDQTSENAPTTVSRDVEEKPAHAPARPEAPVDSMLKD
Kind of assay: […].

The target in assay [2] is T1, IRE1α lumenal domain (IRE1αLD). Put plainly: […]. This is another data set of the same source.
The target is the same in assay [3]. Kind of assay: fluorescence polarisation.

B1: SARS-CoV2 ORF8 peptide 39-48 (peptide)
peptide: IHFYSKWYIR
In the case of B1, in assay [1], the binding result is reported as “binds”.

B2: IRE1α_(Y358-L369) peptide (peptide)
peptide: YWLLIGHHETPL
modifications: not fully specified (N-terminus)
B2: in assay [2], the Ki (as a rule, a measure of affinity in units of concentration, obtained from inhibition or displacement) is 220 ± 30 µM. For the same molecule, the Kd (as a rule, the equilibrium constant for the complex coming apart) in assay [3] is 190 ± 20 µM.

B3: CTxA1_(I124-F132) peptide (peptide)
peptide: IYGWYRVHF
In the case of B3, the binding result in assay [1] is “binds”.

B4: heat-labile enterotoxin (LTx) peptide 124-132 (peptide)
peptide: IYGWYRVNF
On to B4, for which, in assay [1], the binding result was “binds”.

B5: CTxA1_(I124-R141) peptide (peptide)
peptide: IYGWYRVHFGVLDEQLHR
As for B5, the Kd in assay [1] stood at 44 ± 5 µM.
